From FireProtDB (doi:10.1006/jmbi.2001.5050)

B1: Cold shock protein CspB, P41016 (parent)
chain: MQRGKVKWFNNEKGYGFIEVEGGSDVFVHFTAIQGEGFKTLEEGQEVSFEIVQGNRGPQAANVVKL

Variants of: B1
Settings: Bacillus caldolyticus, pH 7, CD, sodium cacodylate-HCl 100 mM, reversible: yes, structure 1C9O, whole UniProt chain shown

| Variant | ddG of mutation (higher = less stable) (25 °C, GdnHCl) [kcal/mol] | denaturant m value (25 °C, GdnHCl) [kcal/mol/M] | denaturant midpoint (higher = more stable) (25 °C, GdnHCl) [M] | unfolding free energy (25 °C, GdnHCl) [kcal/mol] | ddG of mutation (higher = less stable) (70 °C, Thermal, NaCl 2 M) [kcal/mol] | unfolding free energy (70 °C, Thermal, NaCl 2 M) [kcal/mol] | Tm (Thermal) [°C] | change of melting temperature, mutant - wild type (higher = more stable) (Thermal) [°C] | unfolding enthalpy (van 't Hoff) (Thermal) [kcal/mol] | ddG of mutation (higher = less stable) (70 °C, Thermal) [kcal/mol] | unfolding free energy (70 °C, Thermal) [kcal/mol] |
| --- | --- | --- | --- | --- | --- | --- | --- | --- | --- | --- | --- |
| R3E | 0.84 | 1.6 | 2.23 | 0.36 | 1 | 1.2 |  |  |  |  |  |
| R3A |  |  |  |  | 1.05 | 1.15 | 64.9 | -12 | 51.4 |  |  |
| R3K |  |  |  |  | 0.14 | 2.06 | 76.1 | -0.8 | 53.5 | 0.19 | 0.88 |
| R3L |  |  |  |  | 0.22 | 1.98 | 70.9 | -6 | 55.7 | 0.93 | 0.14 |
| Q53E | -0.02 | 1.82 | 2.68 | 1.22 | 0 | 2.2 | 76.1 | -0.8 | 58.8 | 0.1 | 0.98 |
| E46A | -0.1 |  | 2.77 | 1.29 | 0.12 | 2.08 | 75.4 | -1.5 | 57.6 | 0.22 | 0.86 |
| S24D | -0.1 | 1.65 | 2.79 | 1.29 | -0.19 | 2.39 | 77.8 | 0.9 | 61.7 | -0.22 | 1.29 |
| V64T | 0.31 | 1.79 | 2.5 | 0.88 | 0.19 | 2.01 | 75.1 | -1.8 | 58.3 | 0.26 | 0.81 |
| R3E E21A |  |  |  |  | 1.1 | 1.1 | 60 | -16.9 | 49.2 |  |  |
| L66E | 0.84 | 1.74 | 2.21 | 0.36 | 1.27 | 0.93 | 68.9 | -8 | 50.2 |  |  |
| L66A |  |  |  |  | 0.07 | 2.13 |  |  |  |  |  |
| E46A L66A |  |  |  |  | 0.22 | 1.98 | 75 | -1.9 | 56.9 | 0.29 | 0.79 |
| E46A L66E | 0.84 | 1.84 | 2.2 | 0.36 | 1.39 | 0.81 | 68 | -8.9 | 51.9 |  |  |
| R3E E46A | 0.43 | 1.63 | 2.47 | 0.76 | 0.96 | 1.24 | 64.6 | -12.3 | 52.8 |  |  |
| N11S | 0 | 1.74 | 2.69 | 1.2 | -0.22 | 2.41 | 79.2 | 2.3 | 58.8 | -0.33 | 1.41 |
| T31S |  |  |  |  | -0.19 | 2.39 | 77.8 | 0.9 | 59.8 | -0.17 | 1.24 |
| R3E E46A L66E |  |  |  |  |  |  | 50.3 | -26.6 | 40.4 |  |  |
| Y15F | 0.1 | 1.6 | 2.69 | 1.1 | -0.07 | 2.27 | 76.7 | -0.2 | 56.6 | 0.05 | 1.03 |
| Q2L | -0.41 | 1.7 | 2.95 | 1.6 | -0.29 | 2.49 | 80.9 | 4 | 57.8 | -0.55 | 1.63 |
| G23Q S24D | -0.07 | 1.67 | 2.75 | 1.27 | 0.1 | 2.1 | 75.9 | -1 | 59.5 | 0.12 | 0.96 |
| R3E L66E |  |  |  |  |  |  | 44.6 | -32.3 | 36.8 |  |  |
| G23Q | 0 | 1.89 | 2.62 | 1.2 | 0.31 | 1.89 | 74.7 | -2.2 | 59.5 | 0.29 | 0.79 |
| E21A |  |  |  |  | 0.29 | 1.91 | 75 | -1.9 | 57.8 | 0.29 | 0.79 |
